Target: Human ACE2 with Fc tag (human) (UniProt Q9BYF1)
Assay: SPR

Sequence of Human ACE2 with Fc tag (human) (Q9BYF1 18-740): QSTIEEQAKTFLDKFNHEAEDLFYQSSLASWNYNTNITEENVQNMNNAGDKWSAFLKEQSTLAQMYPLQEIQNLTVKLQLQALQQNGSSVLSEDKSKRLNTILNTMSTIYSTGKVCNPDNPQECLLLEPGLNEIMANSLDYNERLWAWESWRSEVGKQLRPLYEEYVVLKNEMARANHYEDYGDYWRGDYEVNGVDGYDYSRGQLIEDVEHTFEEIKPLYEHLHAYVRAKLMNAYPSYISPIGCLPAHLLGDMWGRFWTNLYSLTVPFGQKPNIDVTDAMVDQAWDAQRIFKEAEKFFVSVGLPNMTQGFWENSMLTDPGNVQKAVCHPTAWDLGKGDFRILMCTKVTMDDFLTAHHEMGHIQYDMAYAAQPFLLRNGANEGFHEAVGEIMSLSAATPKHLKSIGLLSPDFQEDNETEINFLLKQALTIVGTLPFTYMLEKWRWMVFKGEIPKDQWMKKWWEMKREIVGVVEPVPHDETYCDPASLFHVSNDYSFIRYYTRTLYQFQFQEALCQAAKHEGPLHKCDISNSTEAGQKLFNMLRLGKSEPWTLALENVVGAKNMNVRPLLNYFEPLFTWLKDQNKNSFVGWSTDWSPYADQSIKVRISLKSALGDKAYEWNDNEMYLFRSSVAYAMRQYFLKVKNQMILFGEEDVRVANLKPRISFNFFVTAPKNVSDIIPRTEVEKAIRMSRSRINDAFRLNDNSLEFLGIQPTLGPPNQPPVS

WT RBD
Kd: 16 nM
koff: 0.0051 s⁻¹

Source: publication PMC10764275
